Target: nsp12 (RdRp catalytic subunit);nsp8;nsp7 (SARS-CoV-2;SARS-CoV-2;SARS-CoV-2, UniProt P0DTD1;P0DTD1;P0DTD1 4393-5324;3943-4140;3860-3942, ||)
Assay: cryo-EM

Row | Binder | binding result
1 | scaffold 1 (RMP at -3) (structured_RNA, strand 2 position 13 (written A) is remdesivir monophosphate (RMP, 1'-cyano)) RNA 1: UUUUCAUGCAUCGCGUAGGCUCAUACCGUAUUGAGACCUUUUGGUCUCAAUACGGUA RNA 2: UGAGCCUACGCGAUG | binds
2 | scaffold 2 (RMP at -4) (structured_RNA, strand 2 position 12 (written A) is remdesivir monophosphate (RMP, 1'-cyano); oligo R-4) RNA 1: UUUUCAUGCACUGCGUAGGCUCAUACCGUAUUGAGACCUUUUGGUCUCAAUACGGUA RNA 2: UGAGCCUACGCAGUG | binds

— paper doi:10.1101/2020.10.28.358481
